Consider two molecules from publication PMC7367873, “Dissecting the sequence determinants for dephosphorylation by the catalytic subunits of phosphatases PP1 and PP2A” (Nature Communications, 2020).

In assay [1] the test system is GFP-14-3-3β and its binding proteins. The assay can be described thus: GFP-14-3-3β co-IP with LC-MS/MS label-free quantification, untreated versus PP1c-treated. The arrangement: species or system human. The conditions noted are these: PP1 vs untreated; label-free quantification. The procedure: (§1) HeLa Kyoto cells expressing transiently transfected pEGFP(C1)-14-3-3β or pEGFP(C1) control plasmid, were incubated with 20 nM Calyculin A (# 9902 S, Cell Signaling Technology) for 12 min. Cells were washed twice on ice with cold PBS and after addition of 500 µL lysis buffer (100 mM NaCl, 10 mM Tris, 0.1% IGEPAL, 1 mM EDTA, 1 mM EGTA, 20 nM Calyculin A, 1x cOmplete Mini protease inhibitor cocktail (Sigma), 1 mM DTT, 1 mM MnCl2) cells were scraped from plates, lysed by 10 pushes through an injection needle (21 G, BD) and the insoluble fraction was pelleted by centrifugation (10 min, 10^4 rcf, 4 °C). Supernatants were then subjected to incubation with 1 µM recombinant phosphatase or buffer for 1 h at 30 °C. Next, we subjected samples to immunoprecipitation using α-GFP nanobodies covalently coupled to agarose beads (2 h, 4 °C, obtained from the EMBL PEPcore Core Facility). Beads were then washed three times with lysis buffer and samples were eluted in 1x LDS sample buffer (Thermo Fisher Scientific) by heating to 70 °C for 10 min.
(§2) The samples were then reduced with 25 mM dithiothreitol (10 min at 70 °C) and alkylated with 55 mM chloroacetamide (room temperature, 30 min, in the dark). Proteins were run on a precast 4–12% NuPAGE gel (ThermoFisher Scientific) for about 1 cm to concentrate the sample prior to in-gel tryptic digestion, which was performed according to the standard procedures. The peptides obtained were dried to completeness and resuspended in 12 µL of buffer A (0.1% FA), and 5 µL of sample were injected per MS measurement. The experiment was carried out in three independent replicates.
(§3) The samples were analyzed by LC-MS/MS on a Dionex Ultimate 3000 nano-HPLC coupled online to a Fusion Lumos Tribrid mass spectrometer (Thermo Fisher Scientific). Peptides were delivered to a trap column (75 µm × 2 cm, packed in-house with 5 µm C18 resin; Reprosil PUR AQ, Dr. Maisch) and washed using 0.1% FA at a flow rate of 5 µL/min for 10 min. Subsequently, peptides were transferred to an analytical column (75 µm × 45 cm, packed in-house with 3 µm C18 resin; Reprosil Gold) applying a flow rate of 300 nL/min and separated using a 60 min linear gradient from 4% to 32% LC solvent B (0.1% FA, 5% DMSO in ACN) in LC solvent A (0.1% FA in 5% DMSO). The eluate from the analytical column was sprayed via a stainless steel emitter (Thermo Fisher Scientific) at a source voltage of 2.1 kV into the mass spectrometer. The transfer capillary was heated to 275 °C. The Fusion Lumos was operated in positive ionization mode and data-dependent acquisition (DDA), automatically switching between MS1 and MS2 spectrum acquisition. Full scan MS1 spectra were recorded in the Orbitrap from 360 to 1300 m/z at a resolution of 60k (automatic gain control (AGC) target value of 4e5 charges, maximum injection time (maxIT) of 50 ms). Up to 20 peptide precursors were isolated (isolation window, 1.7 m/z; maximum injection time, 25 ms; and AGC value, 1e5), fragmented by high-energy collision-induced dissociation (HCD) using 30% normalized collision energy (NCE), and analyzed at a resolution of 15k in the Orbitrap. Precursor ions that were singly charged, unassigned, or with charge states >6+ were excluded. The dynamic exclusion duration of fragmented precursor ions was 20 s.
(§4) Peptide and protein identification and LFQ were performed using MaxQuant software (version 1.6.1.0)[64] by searching the data against all canonical protein sequences as annotated in the Swissprot reference database (human proteins only, 20193 entries, downloaded 22 March 2016, internally annotated with PFAM domains) using the embedded search engine Andromeda[65]. The MaxQuant search was performed using two variable modifications; oxidation of methionine and N-terminal protein acetylation. Carbamidomethylation on cysteines was specified as a fixed modification. Trypsin (Trypsin/P) was specified as the proteolytic enzyme with up to two allowed missed cleavage sites.

Assay [2] deals with GFP-14-3-3β. Nature of the assay: GFP-14-3-3β co-IP with LC-MS/MS, untreated GFP-14-3-3β versus GFP control (14-3-3 interactome). The settings on record: untreated vs GFP; label-free quantification. The class given is binding, human. As for the experimental part: as §1, §2, §3, §4

B1: PFKL (protein, UniProt P17858 2-780, looked up)
ATP-dependent …: AAVDLEKLRASGAGKAIGVLTSGGDAQGMNAAVRAVTRMGIYVGAKVFLIYEGYEGLVEGGENIKQANWLSVSNIIQLGGTIIGSARCKAFTTREGRRAAAYNLVQHGITNLCVIGGDGSLTGANIFRSEWGSLLEELVAEGKISETTARTYSHLNIAGLVGSIDNDFCGTDMTIGTDSALHRIMEVIDAITTTAQSHQRTFVLEVMGRHCGYLALVSALASGADWLFIPEAPPEDGWENFMCERLGETRSRGSRLNIIIIAEGAIDRNGKPISSSYVKDLVVQRLGFDTRVTVLGHVQRGGTPSAFDRILSSKMGMEAVMALLEATPDTPACVVTLSGNQSVRLPLMECVQMTKEVQKAMDDKRFDEATQLRGGSFENNWNIYKLLAHQKPPKEKSNFSLAILNVGAPAAGMNAAVRSAVRTGISHGHTVYVVHDGFEGLAKGQVQEVGWHDVAGWLGRGGSMLGTKRTLPKGQLESIVENIRIYGIHALLVVGGFEAYEGVLQLVEARGRYEELCIVMCVIPATISNNVPGTDFSLGSDTAVNAAMESCDRIKQSASGTKRRVFIVETMGGYCGYLATVTGIAVGADAAYVFEDPFNIHDLKVNVEHMTEKMKTDIQRGLVLRNEKCHDYYTTEFLYNLYSSEGKGVFDCRTNVLGHLQQGGAPTPFDRNYGTKLGVKAMLWLSEKLREVYRKGRVFANAPDSACVIGLKKKAVAFSPVTELKKDTDFEHRMPREQWWLSLRLMLKMLAQYRISMAAYVSGELEHVTRRTLSMDKGF
For the molecule B1, in assay [1], the “Difference (log2), PP1 vs untreated” value amounted to 1.256 log2. Besides, the “Difference (log2), untreated vs GFP” value in assay [2] is on record as -0.3869 log2.

B2: PRSS56 (protein, UniProt P0CW18 20-603, looked up)
Serine protease 56: HPLYTRLPPSALQVLSAQGTQALQAAQRSAQWAINRVAMEIQHRSHECRGSGRPRPQALLQDPPEPGPCGERRPSTANVTRAHGRIVGGSAAPPGAWPWLVRLQLGGQPLCGGVLVAASWVLTAAHCFVGAPNELLWTVTLAEGSRGEQAEEVPVNRILPHPKFDPRTFHNDLALVQLWTPVSPGGSARPVCLPQEPQEPPAGTACAIAGWGALFEDGPEAEAVREARVPLLSTDTCRRALGPGLRPSTMLCAGYLAGGVDSCQGDSGGPLTCSEPGPRPREVLFGVTSWGDGCGEPGKPGVYTRVAVFKDWLQEQMSASSSREPSCRELLAWDPPQELQADAARLCAFYARLCPGSQGACARLAHQQCLQRRRRCELRSLAHTLLGLLRNAQELLGPRPGLRRLAPALALPAPALRESPLHPARELRLHSGSRAAGTRFPKRRPEPRGEANGCPGLEPLRQKLAALQGAHAWILQVPSEHLAMNFHEVLADLGSKTLTGLFRAWVRAGLGGRHVAFSGLVGLEPATLARSLPRLLVQALQAFRVAALAEGEPEGPWMDVGQGPGLERKGHHPLNPQVPPARQP
Take B2: the “Difference (log2), PP1 vs untreated” value in assay [1] turned out to be 1.257 log2. In addition, the “Difference (log2), untreated vs GFP” value in assay [2] is -0.4107 log2.
